Assay results as given in paper PMC4072508, “Genome-Wide Prediction and Validation of Peptides That Bind Human Prosurvival Bcl-2 Proteins” (PLoS Computational Biology, 2014).

What was measured:
Bcl-xL = target: T1, Bcl-xL (Homo sapiens, UniProt Q07817); assay: LUMIER full-length protein interaction; type: binding; details: LUMIER results for Bcl-xL, Z-score of the interaction relative to the Gaussian fit of the data
T1 construct: myc-Bcl-xL SPOT array & FP; made in house
Procedure: (§1) The LUMIER assay was carried out as previously described with the following modifications. A stable cell line expressing receptor tagged on the N-terminus with Nanoluc luciferase was created (the prey). […] Each bait construct was transfected into the receptor-luciferase cells in a 96-well format and after 48 hours the cells were lysed and transferred to 384-well plates coated with anti-FLAG. After incubation and washing, luminescence was measured to quantify how much receptor-luciferase was captured by the bait protein. Anti-Flag ELISA signal was used to exclude bait proteins that were not expressed. The experiment was carried out two times, each in duplicate.

Mcl-1 = target: T2, Mcl-1 (Homo sapiens, UniProt Q07820); assay: LUMIER full-length protein interaction; type: binding; details: LUMIER results for Mcl-1, Z-score relative to Gaussian fit of the data
T2 construct: myc-Mcl-1 SPOT array & FP; made in house
T2 sequence (Q07820 with tags, fused parts or gaps): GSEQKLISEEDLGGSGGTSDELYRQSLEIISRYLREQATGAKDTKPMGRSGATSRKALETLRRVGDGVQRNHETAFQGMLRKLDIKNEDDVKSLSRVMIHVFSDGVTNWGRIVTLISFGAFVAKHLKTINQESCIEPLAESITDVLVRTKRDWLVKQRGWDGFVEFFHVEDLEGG
Procedure: as §1

T1 sequence (Q07817 with tags, fused parts or gaps): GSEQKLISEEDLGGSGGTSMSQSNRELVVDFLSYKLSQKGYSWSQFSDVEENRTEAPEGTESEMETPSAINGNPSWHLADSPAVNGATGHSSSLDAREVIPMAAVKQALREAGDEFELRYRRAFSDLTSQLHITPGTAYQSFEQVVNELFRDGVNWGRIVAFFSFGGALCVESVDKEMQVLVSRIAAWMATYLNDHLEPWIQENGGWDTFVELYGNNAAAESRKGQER

B1: MTA2 (protein, UniProt O94776 1-668, looked up)
Metastasis-associated protein …: MAANMYRVGDYVYFENSSSNPYLVRRIEELNKTANGNVEAKVVCLFRRRDISSSLNSLADSNAREFEEESKQPGVSEQQRHQLKHRELFLSRQFESLPATHIRGKCSVTLLNETDILSQYLEKEDCFFYSLVFDPVQKTLLADQGEIRVGCKYQAEIPDRLVEGESDNRNQQKMEMKVWDPDNPLTDRQIDQFLVVARAVGTFARALDCSSSIRQPSLHMSAAAASRDITLFHAMDTLQRNGYDLAKAMSTLVPQGGPVLCRDEMEEWSASEAMLFEEALEKYGKDFNDIRQDFLPWKSLASIVQFYYMWKTTDRYIQQKRLKAAEADSKLKQVYIPTYTKPNPNQIISVGSKPGMNGAGFQKGLTCESCHTTQSAQWYAWGPPNMQCRLCASCWIYWKKYGGLKTPTQLEGATRGTTEPHSRGHLSRPEAQSLSPYTTSANRAKLLAKNRQTFLLQTTKLTRLARRMCRDLLQPRRAARRPYAPINANAIKAECSIRLPKAAKTPLKIHPLVRLPLATIVKDLVAQAPLKPKTPRGTKTPINRNQLSQNRGLGGIMVKRAYETMAGAGVPFSANGRPLASGIRSSSQPAAKRQKLNPADAPNPVVFVATKDTRALRKALTHLEMRRAARRPNLPLKVKPTLIAVRPPVPLPAPSHPASTNEPIVLED
**Q.** How did the “z-score 1.1” value (Bcl-xL; experiment 1, duplicate 1) turn out when B1 was run?
**A.** 11.5243

**Q.** And the “z-score 1.2” value (Bcl-xL; experiment 1, duplicate 2)?
**A.** 0.8005

**Q.** What about the “z-score 2.1” value (Bcl-xL; experiment 2, duplicate 1) of the same molecule?
**A.** -0.1835

**Q.** And the “z-score 2.2” value (Bcl-xL; experiment 2, duplicate 2)?
**A.** 0.205

**Q.** What about the “z-score 1.2” value (Mcl-1; experiment 1, duplicate 2) of the same molecule?
**A.** 0.31

**Q.** What about the “z-score 2.1” value (Mcl-1; experiment 2, duplicate 1) of the same molecule?
**A.** 0.117

**Q.** What about the “z-score 2.2” value (Mcl-1; experiment 2, duplicate 2) of the same molecule?
**A.** 0.04852
